Like-named read-outs stand apart in the source and are kept apart here.
Experiments:
[1] = biological target: DnaT N-terminal core domain (E. coli); assay: fluorescence polarisation
[2] = biological target: DnaT N-terminal core domain (E. coli); assay: fluorescence polarisation; remark: listed apart in the source
[3] = biological target: the molecule itself; assay: fluorescence polarisation
AUC = biological target: the molecule itself; assay: AUC

| dH [1] | dH [2] | Molecule | dH [3] | stoichiometry N (AUC) |
| --- | --- | --- | --- | --- |
| 2.2 kcal/mol | -4.6 kcal/mol | DnaT N-terminal core domain (domain or fragment) |  |  |
|  |  | Escherichia coli DnaT protein (natural protein, E. coli, UniProt P0A8J2 1-179, looked up) MSSRVLTPDVVGIDALVHDHQTVLAKAEGGVVAVFANNAPAFYAVTPARLAELLALEEKLARPGSDVALDDQLYQEPQAAPVAVPMGKFAMYPDWQPDADFIRLAALWGVALREPVTTEELASFIAYWQAEGKVFHHVQWQQKLARSLQIGRASNGGLPKRDVNTVSEPDSQIPPGFRG | -15 ± 2 kcal/mol | 3 |
